Laboratory results from the supplement of paper PMC10567573.

B1: CDC25B (parent)
chain: KSPIAPCSLDKRVILIFHCEFSSE
B2: FAM189A2 (parent)
chain: PRCDLVDLGEGKICFCCEEFQPAK

Variants of: B1
Assay: protein stability index of a GFP-peptide fusion (GPS, HEK-293T) (PSI 1-6); higher = more stable
Conditions: c terminus: a fixed tail appended
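Note: lentivirally expressed fusions sorted by FACS into six bins by GFP to DsRed ratio, PSI derived from sequencing read proportions per bin multiplied by bin number.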

Protein stability index, by site and new letter:
S23: A 4.14 | N 2.25 | Q 2.79 | C 1.23 | V 2.95 | L 2.04 | M 2.11 | E 1.73 | T 2.89 | F 4.12 | I 2.64 | W 3.34
S22: Q 2.5 | H 2.09 | T 2.88 | A 3.41 | Y 2.31 | P 2.1 | I 1.34 | W 4.72 | F 2.21 | D 3.4 | K 2.08 | M 2.66 | C 1.43
F21: G 2.94 | K 1.5 | T 3.13 | C 2.97 | R 2.15 | H 2.91 | Q 2.53 | D 1.51 | A 2.32 | S 2.69 | N 1.88 | P 2.66 | I 2.1 | M 3.21
C19: A 3.06 | Y 2.08 | I 2.77 | Q 4.16 | T 3.92 | N 1.32 | K 2.03 | W 2.31 | E 1.85 | D 2.34 | H 1.89 | P 2.75 | R 2.96 | S 4.17
E24: K 3.12 | Q 2.38 | G 2.09 | D 2.77 | L 1.98 | V 2.98 | T 2.44 | Y 2.39
E20: C 4.34 | V 2.73 | M 2.51 | F 2.05 | A 1.82 | S 3.75 | K 1.64 | P 3.36 | G 2.81 | N 3.58 | I 2.55 | D 2.58 | H 2.2
H18: D 3.1 | Y 2.5 | C 3.24 | S 3.34 | P 2.44 | K 2.45 | A 3.34 | F 3.53 | M 1.88 | I 1.86 | N 2.26 | G 2.81
F17: H 1.64 | M 1.66 | V 4.17 | P 2.36 | D 3.13 | E 2.76 | N 2.54 | A 1.92 | K 2.33 | R 1.69 | Q 2.44 | S 1.8 | C 2.19 | I 2.47 | T 1.8 | G 1.39

Variants of: B2
Assay: as above
Conditions: c terminus: a fixed tail appended

Protein stability index, by site and new letter:
E10: N 2.65 | D 3 | P 2.88 | Y 2.29 | T 2.75 | A 2.56 | I 2.08 | M 2.01 | K 2.82 | V 2.26 | W 1.85 | Q 2.73 | G 3 | R 2.54 | H 2.88 | C 2.63 | F 2.35 | S 2.36 | L 2.08
G11: W 2.69 | V 1.05 | R 2.55 | A 2.63 | C 2.45 | P 2.52 | Y 2.52 | I 1.86 | E 3.44 | S 2.8 | L 1.95 | M 2.21 | H 2.81 | T 2.64 | K 2.4 | F 1.51 | Q 2.98 | D 3.28 | N 3.33
R2: L 2.8 | D 3.72 | E 3.35 | I 2.83 | H 2.58 | T 2.94 | Q 3.13 | A 2.83 | C 3.55 | N 2.9 | F 1.65 | Y 2.25 | W 1.98 | G 3.18 | K 2.46 | S 3.06 | V 2.17 | P 3.8 | M 2.41
D4: E 3.27 | V 2.5 | I 1.57 | C 2.74 | T 2.7 | A 2.11 | M 2.46 | L 1.67 | G 2.26 | Y 1.86 | N 4.71 | S 2.7 | P 3.39 | H 2.85 | K 3.44 | R 3.56 | F 2.11 | Q 3.44 | W 1.16
C3: F 2.22 | V 3.33 | H 3.31 | W 2.69 | S 2.43 | N 2.25 | D 3.53 | Y 1.91 | I 2.05 | R 2.63 | G 2.98 | Q 3.26 | A 2.01 | P 2.89 | T 2.44 | E 3.55 | L 2.97 | K 3.07 | M 2.3
K12: N 2.7 | Q 3.89 | A 3.51 | C 3.45 | M 2.04 | T 2.63 | R 1.99 | I 2.46 | V 2.35 | Y 2.42 | D 3.4 | P 3.25 | H 4.16 | L 2.42 | G 2.21 | W 2.32 | S 3.38 | E 3.6 | F 2.85
I13: D 4.28 | A 3.01 | C 3.38 | E 3.73
V6: P 3.03 | C 4.15 | L 2.6 | M 2.65 | T 2.98 | I 2.49 | A 3.49 | Y 2.73 | R 3.4 | F 2.71 | H 4.45 | G 3.46 | S 3.21 | K 3.78 | E 3.48 | D 3.34 | W 2.28 | N 3.71 | Q 3.92
L5: R 2.98 | F 2.6 | M 2.86 | N 3.52 | W 2.16 | A 3.98 | V 3.02 | S 3.03 | Q 3.73 | T 3.47 | I 3.13 | H 4.84 | P 3.39 | Y 2.85 | G 4.44 | C 4.89 | D 3.95 | K 4.28 | E 3.84
L8: H 3.98 | I 3.13 | G 4.48 | S 3.97 | P 3.58 | T 3.92 | M 3.74 | E 3.65 | N 3.73 | V 2.97 | R 3.91 | Q 4.32 | C 3.87 | K 3.41 | D 3.67 | Y 2.21 | W 3.23 | F 3.46 | A 3.54
G9: D 3.18 | Q 2.33 | F 1.77 | P 2.99 | I 2.24 | H 3.06 | Y 2.94 | M 2.04 | S 2.77 | N 2.28 | K 2.96 | W 2.08 | A 2.9 | E 2.86 | R 2.14 | L 2.21 | T 2.83 | V 2.52 | C 2.91
D7: W 2.24 | V 1.89 | M 1.93 | Y 2.12 | F 2.03 | T 2.79 | S 2.21 | A 2.61 | Q 2.2 | K 3.76 | E 3.05 | R 2.6 | P 3.17 | L 2.3 | I 1.71 | H 3.25 | G 3.28 | C 2.92 | N 2.76
P1: S 3 | Q 2.9 | C 2.83 | K 3.14 | H 4.03 | L 2.84 | A 2.24 | W 2.43 | E 3.16 | F 1.85 | D 2.67 | R 2.43 | V 1.87 | G 3.14 | T 2.63 | N 3.39 | M 1.86 | I 1.78 | Y 1.91
